The numbers were not newly measured in paper PMC4083100, which cites them from elsewhere.

pKd: −log10 of the molar value. Bounds are passed on as bounds.

The pKd is −log10 of the Kd, conventionally taken in molar units.

The series concerns the target FcεRI (Homo sapiens) (UniProt P12319).
UniProt P12319, sequence (P12319 26-257): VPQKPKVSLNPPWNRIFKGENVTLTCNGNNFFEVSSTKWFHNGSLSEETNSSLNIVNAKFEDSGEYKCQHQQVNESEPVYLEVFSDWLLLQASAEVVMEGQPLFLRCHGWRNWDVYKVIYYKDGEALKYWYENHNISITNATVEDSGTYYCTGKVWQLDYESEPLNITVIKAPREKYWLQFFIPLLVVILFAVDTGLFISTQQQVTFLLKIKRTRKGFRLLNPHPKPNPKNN

Consider IgE (from UniProt P01854), for which the pKd was above 9.00.
